Source: patent US20110091968A1 (KABUSHIKI KAISHA HAYASHIBARA SEIBUTSU KAGAKU KENKYUJO, published 2011)

Experiments:
Assay in all cases: Western blotting
[1] = target: T1, recombinant human IFNα subtype α1 (human, UniProt P0DY56 24-189)
T1 construct: also called rIFNα1; IFNα1
Source text: (§1) Proteins, contained in a part of the gel ranging from about 20 to about 29 kilo daltons (abbreviated as “kDa”, hereinafter) corresponding to the molecular weights of the proteins of IFNs, were transferred to a nitrocellulose membrane and soaked in “BlockAce”, a product name of a blocking solution to inhibit non-specific reaction commercialized by Dainippon Sumitomo Pharma, Co., Ltd., Tokyo, Japan. The resulting nitrocellulose membrane after the blocking treatment was soaked in a solution, containing 2 μg/ml of any of the nine monoclonal antibodies purified by using PROTEIN G SEPHAROSE, at ambient temperature for one hour, and washed with 50 mM Tris-HCl buffer (pH 7.5) containing 0.05% (v/v) tween 20 to remove excessive amounts of antibodies. The resulting nitrocellulose membrane was soaked in a solution containing an HRP labelled anti-mouse immunoglobulin or anti-rat immunoglobulin (both of which are commercialized by DakoCytomation, Denmark) at ambient temperature for one hour. The resulting membrane was washed with 50 mM Tris-HCl buffer (pH 7.5) containing 0.05% (v/v) tween 20 for 30 min and subjected to a color reaction by using commercialized “ECL western blotting detection reagent and Hyperfilm ECL”, a product name of a Western blotting detection kit commercialized by GE Healthcare Biosciences, Tokyo, Japan.

[2] = target: T2, recombinant human IFNα subtype α5 (human, UniProt P01569 24-189, limits assumed)
T2 construct: also called rIFNα5; IFNα5
Source text: as §1

[3] = target: T3, recombinant human IFNα subtype α6 (human, UniProt P05013 24-189, limits assumed)
T3 construct: also called rIFNα6; IFNα6
T3 sequence (P05013 24-189 limits assumed): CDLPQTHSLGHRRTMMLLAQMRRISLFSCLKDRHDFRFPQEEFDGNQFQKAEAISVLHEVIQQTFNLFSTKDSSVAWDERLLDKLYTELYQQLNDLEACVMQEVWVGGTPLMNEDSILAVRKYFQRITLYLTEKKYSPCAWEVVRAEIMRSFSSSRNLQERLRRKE
Source text: as §1

[4] = target: T4, recombinant human IFNα subtype α10 (human, UniProt P01566 24-189)
T4 construct: also called rIFNα10; IFNα10
T4 sequence (P01566 24-189 limits assumed): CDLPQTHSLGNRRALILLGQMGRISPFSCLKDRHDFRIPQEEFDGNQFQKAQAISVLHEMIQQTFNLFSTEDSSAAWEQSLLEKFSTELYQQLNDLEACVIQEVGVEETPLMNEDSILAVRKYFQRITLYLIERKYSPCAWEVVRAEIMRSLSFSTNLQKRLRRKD
Source text: as §1

human IFNβ = human IFNβ (human, UniProt P01574 22-187)
Sequence of human IFNβ (P01574 22-187 limits assumed): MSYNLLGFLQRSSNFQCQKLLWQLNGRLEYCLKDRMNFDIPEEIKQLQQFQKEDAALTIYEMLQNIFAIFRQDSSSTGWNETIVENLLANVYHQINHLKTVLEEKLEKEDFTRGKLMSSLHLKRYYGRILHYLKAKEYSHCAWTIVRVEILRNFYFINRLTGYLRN

human IFNγ = target: T5, human IFNγ (human, UniProt P01579 24-166, limits assumed)
T5 sequence (looked up): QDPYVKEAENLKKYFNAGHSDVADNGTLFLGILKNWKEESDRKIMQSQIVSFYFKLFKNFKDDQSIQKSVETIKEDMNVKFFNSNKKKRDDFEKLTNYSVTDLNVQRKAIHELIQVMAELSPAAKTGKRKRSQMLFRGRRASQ

[5] = target: T6, human tumor necrosis factor (human, UniProt P01375 77-233)
T6 construct: also called human TNFα; TNFα
T6 sequence (P01375 77-233 limits assumed): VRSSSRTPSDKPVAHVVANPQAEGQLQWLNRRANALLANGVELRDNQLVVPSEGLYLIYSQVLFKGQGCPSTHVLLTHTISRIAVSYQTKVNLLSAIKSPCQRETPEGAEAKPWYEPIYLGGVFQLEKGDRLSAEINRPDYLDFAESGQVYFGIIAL

Measured: binding result

T2 sequence (P01569 24-189 limits assumed): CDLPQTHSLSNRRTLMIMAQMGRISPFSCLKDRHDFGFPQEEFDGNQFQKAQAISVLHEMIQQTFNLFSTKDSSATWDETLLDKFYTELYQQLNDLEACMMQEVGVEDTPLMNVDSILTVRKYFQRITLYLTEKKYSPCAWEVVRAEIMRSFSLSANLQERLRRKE
T1 sequence (P0DY56 entry or part of it limits assumed): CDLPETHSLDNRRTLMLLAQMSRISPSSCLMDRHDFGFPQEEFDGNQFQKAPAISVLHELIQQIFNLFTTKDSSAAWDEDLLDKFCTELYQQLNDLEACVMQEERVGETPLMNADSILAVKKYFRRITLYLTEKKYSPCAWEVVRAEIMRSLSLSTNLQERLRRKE

B1: α8#139 mAb (antibody, IgG1, V domains shown)
VH: QVQLKQSGPGLVQPSQSLSITCTVSGFSLTSYGVHWIRQSPGKGLEWLGVIWSGGNTDYNAAFISRLSITKDNSKSQFFFKMNSLQAKDTAIYYCARGRGNYVPFTYWGQGTLVTVSA
VL: QIVLTQSPTIMSASLGERVTMTCTASSSVSSTYLHWYQQKPGSSPKLLIYSTSNLASGVPARFSGSGSGTSYSLTISNMEAEDAATYYCHQYHRSPPMTFGGGTKLEIK
notes: HRP-labelled where used as labelled antibody; also called FERM BP-11081
no binding: [1] | [2] | [3] | [4] | human IFNβ | human IFNγ | [5]

B2: α8Y36-2 mAb (antibody, IgG1, V domains shown)
VH: EVQLVESGGGLVQPGRSLKLSCAASGFTFSKYGMAWVRQAPTKGLEWVASISTGGYNTYYRDSVKGRFTISRDNAKNTQYLQMDSLRSEDTATYYCTRPPAFDHWGQGIMVTVSS
VL: DIKMTQSPSFLSASVGDRVTINCKASQNIDKYLNWYQQKLGKAPRLLMYNTNNLQTGIPSRFSGSGSTTDFTLTISSLQPEDVATYFCSHHSVRPYTFGAGTKLELK
notes: also called mAb-IFNα8Y36-2; FERM BP-11082
no binding: [1] | [2] | [3] | [4] | human IFNβ | human IFNγ | [5]
